Laboratory results taken from the Human Domainome abundance scans (Beltran et al. 2025).

B1: Protein piccolo, residues 1058 to 1114; numbered along this chain, Q9Y6V0 (parent)
chain: TCPLCKTELNIGSKDPPNFNTCTECKNQVCNLCGFNPTPHLTEIQEWLCLNCQTQRA

Variants of: B1
Assay: abundance fitness (aPCA) (normalised: wild type 0, dead -1); higher = more abundant; growth selection in yeast, the domain comes from the species named
Conditions: Homo sapiens

Abundance fitness, by site and new letter:
P17: V -0.428; S -0.175; N -0.189; I -0.448; R -0.106; K 0.127; W -0.199; T -0.464; E 0.137; A -0.176; Q -0.114; L -0.084; D -0.122; G -0.097; M -0.491; Y -0.53; F -0.245
E24: V 0.001; M -0.06; C -0.706; S -0.13; N -0.184; R -0.01; W -0.198; F -0.269; Q -0.135; P -0.517; K -0.017; T 0.034; L -0.363; A -0.061; G -0.012; D 0.008; H -0.058
N18: M -0.842; P -0.047; F -0.199; T -0.089; S -0.128; G -0.098; Q -0.07; C -0.219; R -0.079; V -0.348; Y -0.094; A -0.199; D 0.008; H -0.1; I -0.5; E -0.104; K -0.032; W -0.346
T21: S 0.083; M 0.298; V 0.091; A 0.004; C 0.032; W 0.106; G -0.053; H 0.013; L -0.098; F -0.109; D -0.078; P -0.169; K 0.198; Y 0.135; E 0.036
C33: W -1.01; L -0.819; N -0.641; M -0.812; R -0.729; I -0.933; E -0.349; H 0.076; V -0.743; A -0.588; Q -0.623; D -0.336; P -0.795; F -0.92; Y -1.26; T -0.952; S -0.646; K -0.822
C30: M -0.734; R -0.541; S -0.429; I -0.887; A -0.562; W -1; N -0.612; Q -0.619; H -0.17; E -0.532; F -0.991; D -0.499; V -0.594; Y -1.03; P -0.807; T -0.597; L -0.971; G -0.584
N20: D 0.186; Y -0.337; S -0.082; Q 0.094; W -0.188; T 0.067; R 0.078; E -0.012; C -0.091; G 0.055; A -0.001; V 0.07; F -0.051; L -0.024; M 0.188; I -0.115
P16: W -0.541; V -0.483; S -0.057; T -0.37; Y -0.056; R -0.179
Q28: F -0.185; S 0.007; L -0.078; E -0.164; C 0.018; H -0.206; R 0.004; I -0.579; N -0.125; T -0.015; A 0.09; Y -0.179; K -0.265; W -0.115; V -0.033; D -0.398; M 0.186; P -0.099; G 0.038
G34: L 0.043; K -0.794; R -0.102; F -0.035; N -0.925; P -0.63; T -1.02; V -0.037; M -0.643; I -0.885; S -0.106; W -0.242; Y -0.15; H -0.37; D -0.075; Q -0.072; A -0.083; E -0.292
L32: D -0.032; H 0.073; P -0.134; M -0.131; W 0.015; C -0.017; K 0.172; A 0.124; I -0.097; V 0.104; N -0.176; T -0.017; Y -0.218; R 0.175; S 0.128; G 0.279
N31: C 0.093; T -0.173; M -0.147; R 0.012; Q 0.014; K 0.12; G 0.028; D 0.003; I -0.121; E 0.148; V 0.045; H 0.118; L 0.072; W -0.19; S 0.056; F 0.117; Y 0.011
C25: A -0.784; W -0.879; K -0.808; L -0.846; T -0.606; S -0.671; I -0.669; Q -0.644; M -0.742; D -0.834; N -0.66; P -0.577; H -0.529; R -0.79; Y -0.651; V -0.636; G -0.682
V29: I -0.241; Y -0.082; K -0.326; W -0.131; H -0.1; F -0.217; C 0.028; D -0.32; E -0.178; L -0.284; R -0.148; P -0.545; N -0.199; G -0.198; T -0.118; Q -0.212; S -0.265; M -0.039; A -0.064
F35: Q 0.25; S 0.236; E 0.275; C 0.019; L 0.175; M 0.291; K 0.255; G 0.175; V 0.108; H 0.275; D 0.218; N 0.066; P 0.285; R 0.21; A 0.139; T 0.298
K26: P -0.148; S 0.119; H -0.253; E 0.045; I 0.006; W -0.022; F -0.025; T 0.195; Q 0.04; V 0.065; R 0.072; N 0.09; Y 0.148; M 0.335; D 0.071; G 0.139; C -0.026; L 0.103
C22: T -0.736; E -0.54; R -0.484; W -1.03; L -0.675; Y -0.899; Q -0.791; M -0.74; I -1.04; H -0.567; A -0.647; P -0.938; K -0.818; V -0.733; F -0.958; G -0.69; S -0.611; D -0.817
F19: A -0.114; K -0.737; W -0.083; Y 0.032; V -0.211; N 0.04; T -0.044; S -0.277; E -0.153; P -0.385; R -0.263; L -0.151; H -0.022; C -0.347; M 0.181; I 0.178
N27: C 0.169; M -0.088; A 0.151; Y -0.452; T -0.082; D -0.094; L 0.157; S 0.12; H -0.024; R 0.106; Q 0.112; G 0.138; P -0.317; I 0.004; W 0.174; F -0.424; V 0.163; K -0.03
T23: L -0.163; H -0.18; V 0.067; F 0.288; N -0.342; Y 0.024; E -0.043; R -0.016; D 0.041; C 0.041; I -0.187; M 0.062; Q -0.36; K -0.031; S 0.003; P -0.126; A 0.097
